Experiment in all cases: immunostaining of cells or tissue
Test [1] deals with HA-neurexin1β(−S4) (mouse | rat).
In test [2] the target is T1, HA-tagged mouse MDGA2 (mouse).
T1 sequence (P60755 whole entry, looked up): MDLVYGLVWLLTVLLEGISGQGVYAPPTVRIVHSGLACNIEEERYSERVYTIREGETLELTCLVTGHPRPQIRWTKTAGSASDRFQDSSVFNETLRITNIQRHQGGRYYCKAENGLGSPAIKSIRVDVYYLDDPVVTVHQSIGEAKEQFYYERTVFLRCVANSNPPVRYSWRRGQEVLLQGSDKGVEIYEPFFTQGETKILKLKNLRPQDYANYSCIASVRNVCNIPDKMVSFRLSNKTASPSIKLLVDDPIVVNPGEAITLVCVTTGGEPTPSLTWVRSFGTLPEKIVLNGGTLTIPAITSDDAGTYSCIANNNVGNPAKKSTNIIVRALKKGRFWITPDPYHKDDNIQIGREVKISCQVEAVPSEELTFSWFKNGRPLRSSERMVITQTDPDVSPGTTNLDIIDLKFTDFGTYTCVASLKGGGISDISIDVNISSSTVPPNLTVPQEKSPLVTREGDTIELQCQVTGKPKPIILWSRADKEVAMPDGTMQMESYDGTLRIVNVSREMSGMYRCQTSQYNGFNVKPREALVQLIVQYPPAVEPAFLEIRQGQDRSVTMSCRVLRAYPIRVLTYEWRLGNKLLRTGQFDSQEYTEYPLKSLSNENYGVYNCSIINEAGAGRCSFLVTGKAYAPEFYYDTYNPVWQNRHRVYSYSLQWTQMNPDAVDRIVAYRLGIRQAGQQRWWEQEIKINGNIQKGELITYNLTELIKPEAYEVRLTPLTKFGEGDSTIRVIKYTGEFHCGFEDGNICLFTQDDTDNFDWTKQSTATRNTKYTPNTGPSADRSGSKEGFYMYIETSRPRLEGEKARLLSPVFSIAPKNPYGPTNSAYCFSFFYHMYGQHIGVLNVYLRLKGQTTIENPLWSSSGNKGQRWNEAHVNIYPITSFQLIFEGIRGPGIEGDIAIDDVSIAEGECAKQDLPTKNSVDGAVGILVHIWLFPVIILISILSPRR

The target in test [3] is T2, extracellular HA-tagged rat MDGA1 (rat, UniProt P85171 19-933).
T2 sequence (looked up): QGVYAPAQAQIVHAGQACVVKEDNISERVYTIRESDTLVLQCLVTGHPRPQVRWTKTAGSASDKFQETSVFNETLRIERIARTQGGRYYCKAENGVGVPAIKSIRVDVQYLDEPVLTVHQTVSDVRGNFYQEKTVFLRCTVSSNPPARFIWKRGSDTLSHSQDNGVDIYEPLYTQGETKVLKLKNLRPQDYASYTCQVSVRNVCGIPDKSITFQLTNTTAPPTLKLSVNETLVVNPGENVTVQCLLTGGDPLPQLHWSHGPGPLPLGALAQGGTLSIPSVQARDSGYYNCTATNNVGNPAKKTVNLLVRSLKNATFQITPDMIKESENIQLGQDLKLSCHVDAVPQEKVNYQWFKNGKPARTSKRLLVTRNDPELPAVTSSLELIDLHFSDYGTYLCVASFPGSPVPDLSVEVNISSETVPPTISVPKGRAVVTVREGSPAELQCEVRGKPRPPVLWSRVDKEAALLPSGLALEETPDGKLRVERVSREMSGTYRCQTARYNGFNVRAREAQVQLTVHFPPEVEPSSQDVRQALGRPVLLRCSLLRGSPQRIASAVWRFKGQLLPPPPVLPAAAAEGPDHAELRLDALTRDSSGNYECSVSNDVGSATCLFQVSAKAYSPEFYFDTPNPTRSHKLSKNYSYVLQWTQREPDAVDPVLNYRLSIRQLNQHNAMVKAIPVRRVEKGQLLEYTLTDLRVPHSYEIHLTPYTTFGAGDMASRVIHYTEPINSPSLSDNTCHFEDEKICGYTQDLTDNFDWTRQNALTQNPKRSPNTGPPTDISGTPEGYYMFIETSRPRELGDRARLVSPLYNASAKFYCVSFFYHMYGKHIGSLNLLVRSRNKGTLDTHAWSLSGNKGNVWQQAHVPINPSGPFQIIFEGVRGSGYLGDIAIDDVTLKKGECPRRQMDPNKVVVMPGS

Turning to “soluble neuroligin-2–Fc fusion protein (from UniProt Q69ZK9 15-676)”, the results for the Kd in test [1] and in test [2] were 8.4 nM and 45.9 nM, respectively.

B1: soluble neuroligin-2–Fc fusion protein (Fc fusion, UniProt Q69ZK9 15-676, looked up)
chain: QRGGGGPGGGAPGGPGLGLGSLGEERFPVVNTAYGRVRGVRRELNNEILGPVVQFLGVPYATPPLGARRFQPPEAPASWPGVRNATTLPPACPQNLHGALPAIMLPVWFTDNLEAAATYVQNQSEDCLYLNLYVPTEDGPLTKKRDEATLNPPDTDIRDSGKKPVMLFLHGGSYMEGTGNMFDGSVLAAYGNVIVVTLNYRLGVLGFLSTGDQAAKGNYGLLDQIQALRWLSENIAHFGGDPERITIFGSGAGASCVNLLILSHHSEGLFQKAIAQSGTAISSWSVNYQPLKYTRLLAAKVGCDREDSTEAVECLRRKSSRELVDQDVQPARYHIAFGPVVDGDVVPDDPEILMQQGEFLNYDMLIGVNQGEGLKFVEDSAESEDGVSASAFDFTVSNFVDNLYGYPEGKDVLRETIKFMYTDWADRDNGEMRRKTLLALFTDHQWVAPAVATAKLHADYQSPVYFYTFYHHCQAEGRPEWADAAHGDELPYVFGVPMVGATDLFPCNFSKNDVMLSAVVMTYWTNFAKTGDPNQPVPQDTKFIHTKPNRFEEVVWSKFNSKEKQYLHIGLKPRVRDNYRANKVAFWLELVPHLHNLHTELFTTTTRLPPYATRWPPRTPGPGTSGTRRPPPPATLPPESDIDLGPRAYDRFPGDSRDYSTE
For B1, binding in test [3] was characterised by a dissociation constant (Kd) of 7.3 nM.

Source of the values: paper PMC3563690 (The Journal of Cell Biology, 2013).
